Experimental data reported in patent US20030092613A1, “Alpha7 nicotinic receptor peptides as ligands for beta amyloid peptides” (priority 2000, published 2003).

Biological target: β-amyloid1-42 (UniProt P05067)
Assay: cell-based or functional assay

(Ac)FYEC (peptide)
ACh rel % Inh @ 100 µM: 54% | Inh ACh rel IC50: < 10 µM

(Ac)YECC-amide (peptide)
ACh rel % Inh @ 100 µM: 62% | Inh ACh rel IC50: < 10 µM
